T1: C-terminal truncated 35S-ADAMTS-18 (AD-CTD) (Homo sapiens (Human), UniProt Q8TE60 48-1064, 35S methionine)
T1 construct: also called C-terminal deficient ADAMTS-18
T1 sequence: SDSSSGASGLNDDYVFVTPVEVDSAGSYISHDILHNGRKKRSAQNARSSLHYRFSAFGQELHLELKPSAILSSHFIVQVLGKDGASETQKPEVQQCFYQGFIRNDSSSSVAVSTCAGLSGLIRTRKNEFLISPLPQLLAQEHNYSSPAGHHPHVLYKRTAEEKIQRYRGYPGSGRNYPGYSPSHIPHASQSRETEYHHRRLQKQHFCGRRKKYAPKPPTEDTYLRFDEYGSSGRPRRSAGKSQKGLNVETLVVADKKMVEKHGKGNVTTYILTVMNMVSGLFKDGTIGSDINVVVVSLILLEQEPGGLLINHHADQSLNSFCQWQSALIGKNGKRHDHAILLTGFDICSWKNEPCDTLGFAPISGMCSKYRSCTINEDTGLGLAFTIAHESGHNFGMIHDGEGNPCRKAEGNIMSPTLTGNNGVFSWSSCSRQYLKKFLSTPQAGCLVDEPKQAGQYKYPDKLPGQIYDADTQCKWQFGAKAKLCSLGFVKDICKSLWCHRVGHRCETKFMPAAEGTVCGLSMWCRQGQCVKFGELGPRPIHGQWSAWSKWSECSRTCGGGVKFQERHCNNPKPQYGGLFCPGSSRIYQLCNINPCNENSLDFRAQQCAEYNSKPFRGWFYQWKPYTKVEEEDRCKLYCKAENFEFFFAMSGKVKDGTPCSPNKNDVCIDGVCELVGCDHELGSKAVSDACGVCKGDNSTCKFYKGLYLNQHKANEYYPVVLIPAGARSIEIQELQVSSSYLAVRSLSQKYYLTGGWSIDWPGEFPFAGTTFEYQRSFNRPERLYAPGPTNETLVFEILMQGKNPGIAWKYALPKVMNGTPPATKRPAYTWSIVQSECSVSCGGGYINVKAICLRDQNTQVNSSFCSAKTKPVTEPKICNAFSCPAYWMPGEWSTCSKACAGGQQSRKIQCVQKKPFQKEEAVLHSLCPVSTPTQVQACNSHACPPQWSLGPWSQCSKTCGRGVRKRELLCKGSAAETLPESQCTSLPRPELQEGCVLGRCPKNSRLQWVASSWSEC

B1: platelet GPIIIa (integrin beta3) on platelets (receptor, human, UniProt P05106 27-788, looked up)
chain: GPNICTTRGVSSCQQCLAVSPMCAWCSDEALPLGSPRCDLKENLLKDNCAPESIEFPVSEARVLEDRPLSDKGSGDSSQVTQVSPQRIALRLRPDDSKNFSIQVRQVEDYPVDIYYLMDLSYSMKDDLWSIQNLGTKLATQMRKLTSNLRIGFGAFVDKPVSPYMYISPPEALENPCYDMKTTCLPMFGYKHVLTLTDQVTRFNEEVKKQSVSRNRDAPEGGFDAIMQATVCDEKIGWRNDASHLLVFTTDAKTHIALDGRLAGIVQPNDGQCHVGSDNHYSASTTMDYPSLGLMTEKLSQKNINLIFAVTENVVNLYQNYSELIPGTTVGVLSMDSSNVLQLIVDAYGKIRSKVELEVRDLPEELSLSFNATCLNNEVIPGLKSCMGLKIGDTVSFSIEAKVRGCPQEKEKSFTIKPVGFKDSLIVQVTFDCDCACQAQAEPNSHRCNNGNGTFECGVCRCGPGWLGSQCECSEEDYRPSQQDECSPREGQPVCSQRGECLCGQCVCHSSDFGKITGKYCECDDFSCVRYKGEMCSGHGQCSCGDCLCDSDWTGYYCNCTTRTDTCMSSNGLLCSGRGKCECGSCVCIQPGSYGDTCEKCPTCPDACTFKKECVECKKFDRGALHDENTCNRYCRDEIESVKELKDTGKDAVNCTYKNEDDCVVRFQYYEDSSGKSILYVVEEPECPKGPDILVVLLSVMGAILLIGLAALLIWKLLITIHDRKEFAKFEEERARAKWDTANNPLYKEATSTFTNITYRGT
notes: whole, on cells; On platelets GPIIIa stands in the GPIIb-IIIa complex; also called platelet GPIIIa(49-66); platelet integrin GPIIIa
B2: ADAMTS-18 C-terminal 385 amino acid fragment (AD-18F) (ligand)
chain: NETLVFEILMQGKNPGIAWKYALPKVMNGTPPATKRPAYTWSIVQSECSVSCGGGYINVKAICLRDQNTQVNSSFCSAKTKPVTEPKICNAFSCPAYWMPGEWSTCSKACAGGQQSRKIQCVQKKPFQKEEAVLHSLCPVSTPTQVQACNSHACPPQWSLGPWSQCSKTCGRGVRKRELLCKGSAAETLPESQCTSLPRPELQEGCVLGRCPKNSRLQWVASSWSECSATCGLGVRKREMKCSEKGFQGKLITFPERRCRNIKKPNLDLEETCNRRACPAHPVYNMVAGWYSLPWQQCTVTCGGGVQTRSVHCVQQGRPSSSCLLHQKPPVLRACNTNFCPAPEKREDPSCVDFFNWCHLVPQHGVCNHKFYGKQCCKSCTRKI

Experiments:
[1] = target: T1, C-terminal truncated 35S-ADAMTS-18 …; experiment: 35S-labelled protein on gel filtered platelets, overnight at 4 C
Protocol: FIGS. 14A-C show the effect of ADAMTS-18 on oxidative platelet fragmentation and binding to platelets. […] Gel-filtered platelets were treated with Biotin-peptide (bp) as well as bp+streptavidin (str) and scrambled Biotinylated ADAMTS-18 peptide (scp) to induce integrin clustering, n=6. Platelet fragmentation was assessed by FACS as described in the examples section. […] CT (control IgG), Ab (patient IgG). 18-mer biotin-peptide was incubated with an anti-Biotin Ab, 1:200 dilution (gray bars) or irrelevant IgG white bars, n=6. Oxidation was assessed. […] Ctl refers to ³⁵S ribosomal-translation of luciferase. AD-CTD refers to ³⁵S-ribosomal translation of ADAMTS-18 with absent C-terminal 157 amino acids (13% deleted). There is an absence of binding with C-terminal deficient ADAMTS-18. 18 mer refers to 10 μM non-radioactive 18 mer peptide added with the ³⁵S-ADAMTS-18 incubation. Binding with C-terminal 18 mer peptide is inhibited. The amino acid sequence for the 18-mer peptide is (SEQ ID NO: 8): […]

[2] = target: B1; experiment: cell-based or functional assay

binding result [1]	platelet fragmentation of TFLLRN-activated platelets against platelets without prestimulation [2]	Binder
no binding		B1
	~22 fold	B2
